The numbers were not newly measured in publication PMC10148413, which cites them from elsewhere.

This data set addresses histone H3K4 methylated peptide (Homo sapiens) (UniProt P68431).

Usually Kd stands for a measure of binding affinity in units of concentration. For the substance ASH1L PHD (from UniProt Q9NR48), the Kd is 150 µM.
